Data: PMC7041687 (The Journal of Cell Biology, 2019)
Ends that are not written are not given here.

T1: Ana2 S38A full length, nonphosphorylated (purified) (Drosophila, UniProt Q9XZ31 1-420, S38A)
T1 sequence (looked up): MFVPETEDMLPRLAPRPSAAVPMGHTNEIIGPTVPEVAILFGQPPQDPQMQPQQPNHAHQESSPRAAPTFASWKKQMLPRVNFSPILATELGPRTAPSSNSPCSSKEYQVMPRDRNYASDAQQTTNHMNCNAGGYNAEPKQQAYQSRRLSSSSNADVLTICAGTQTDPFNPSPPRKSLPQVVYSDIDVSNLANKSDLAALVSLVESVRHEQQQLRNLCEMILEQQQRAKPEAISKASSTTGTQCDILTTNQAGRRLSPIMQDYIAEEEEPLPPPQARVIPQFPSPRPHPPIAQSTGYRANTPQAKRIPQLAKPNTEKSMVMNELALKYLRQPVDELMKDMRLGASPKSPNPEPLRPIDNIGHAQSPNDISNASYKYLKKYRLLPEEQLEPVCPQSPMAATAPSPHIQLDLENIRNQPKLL

T2: Ana2 full length, wild type, nonphosphorylated (purified) (Drosophila, UniProt Q9XZ31 1-420)
T2 sequence (looked up): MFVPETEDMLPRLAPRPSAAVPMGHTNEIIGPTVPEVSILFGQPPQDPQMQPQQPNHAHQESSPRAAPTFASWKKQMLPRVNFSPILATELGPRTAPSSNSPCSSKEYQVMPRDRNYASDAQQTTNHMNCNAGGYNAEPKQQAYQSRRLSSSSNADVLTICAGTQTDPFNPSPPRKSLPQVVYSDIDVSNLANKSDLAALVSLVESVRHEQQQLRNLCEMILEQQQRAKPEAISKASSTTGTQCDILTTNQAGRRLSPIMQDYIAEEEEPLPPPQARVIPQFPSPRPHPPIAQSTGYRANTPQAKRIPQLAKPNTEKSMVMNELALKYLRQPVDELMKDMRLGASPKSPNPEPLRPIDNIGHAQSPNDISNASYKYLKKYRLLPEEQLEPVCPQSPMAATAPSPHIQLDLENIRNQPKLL

B1: His6-Thrombin-Sas4-606 (Sas4 amino acids 606–901) (domain or fragment, Drosophila, UniProt Q9VI72 606-901, looked up)
chain: RNIARLAPKVLPSATMSDILDENGRRTQSLDGTAGKPAKQREAQNRRQSSGSAQVRSRSRSLSRNKKTPYALDESYASSSSVESEEVQPPVTAPKAATPPPAANSSSDFKREITNADGSKDIWYPNGNLKKISADGMNLRMLYFNKDIKETNIREGTVKYYYAETNTWHTSYLDGLEILEFPNGQTEHRRKDGTVEIHFPNNSIKIVDPSDTEKLEEWRYADGTHLVQLRNGDKILNLPNGQKEIHTKLNKRREYPDGTVKLVYPDGSQETRYSNGRVRLKDKDGKLIMDTDYAKY

What was measured:
Experiment in all cases: BLI
[1] = molecular target: B1
[2] = molecular target: T1, Ana2 S38A full length, …
[3] = molecular target: T2, Ana2 full length, wild type, …

| Binder | Kd [1] | Kd [2] | Kd [3] |
| --- | --- | --- | --- |
| Ana2 1–60 (amino acids 1–60), nonphosphorylated (domain or fragment, Drosophila, UniProt Q9XZ31 1-60, looked up) MFVPETEDMLPRLAPRPSAAVPMGHTNEIIGPTVPEVSILFGQPPQDPQMQPQQPNHAHQ | 134 nM | – | – |
| Ana2 1–60 prephosphorylated with purified Plk4 (domain or fragment, Drosophila, UniProt Q9XZ31 1-60, looked up, also: prephosphorylated by Plk4, sites not listed) MFVPETEDMLPRLAPRPSAAVPMGHTNEIIGPTVPEVSILFGQPPQDPQMQPQQPNHAHQ | 72 nM | – | – |
| B1 | – | 31 nM | 26 nM |
